Reference: the RNAGym collection of RNA variant scans (doi:10.7554/elife.80360)

B1: Hairpin Ribozyme (parent)
chain: GUCCUCUUUCACGUGCGCGUGAAAGAGAGAAGUGAACCAGAGAAACACACGUUGUGGUAUAUUACCUGGUA

Variants of: B1
Assay: self-cleavage, relative activity (ratio to wild type); higher = more cleavage; co-transcriptional

Variant	self-cleavage
GUCCUCUUGCCCGUGCGCGUGAAAGAGAGAAGUGAACCAGAGAAACACACGUUGUGGUAUAUUACCUGGUA [U9G A11C]	0.416
GUCCUCUUCCACGUGCGCGUGAAAGAGAGAAGUGAACCAGAGAAACACACGUUGUGGUAUAUUACCAGGUA [U9C U67A]	0.174
GUCCUCUUCCACGUGCGCGUGAAAGAGAGAAGUGAACCAGAGAAACACACGUUGUGGUAUAUUACCUGUUA [U9C G69U]	0.256
GUCCUCUUGCACGUGCGCGUGAACGAGAGAAGUGAACCAGAGAAACACACGUUGUGGUAUAUUACCUGGUA [U9G A24C]	0.318
GUCCUCUUCCACGUGCGCGUGAAAGAGAGAAGUGAACCAGAGAAACACACGUUGUUGUAUAUUACCUGGUA [U9C G56U]	0.0494
GUCCUCUUCCACGUGCGCGUGAAAGAGAGAAGUGAACCAGAGAAACACACGUUGUCGUAUAUUACCUGGUA [U9C G56C]	0.158
GUCCUCUUCCACGUGCGCGUGAAAGAGAGAAGUGAACCAGAGAAACACACGUAGUGGUAUAUUACCUGGUA [U9C U53A]	1.19
GUCCUCUUCCACGUGCGCGUGAAAGAGAGAAGUGAACCAGAUAAACACACGUUGUGGUAUAUUACCUGGUA [U9C G42U]	0.34
GUCCUCUUCCACGUGCGCGUGAAAGAGAGAAGUGAACCAGAAAAACACACGUUGUGGUAUAUUACCUGGUA [U9C G42A]	0.081
GUCCUCUUCCACGUGCGCGUGAAAUAGAGAAGUGAACCAGAGAAACACACGUUGUGGUAUAUUACCUGGUA [U9C G25U]	0.386
GUCCUCUUGCACGUGCGCGUGAAAGUGAGAAGUGAACCAGAGAAACACACGUUGUGGUAUAUUACCUGGUA [U9G A26U]	0.477
GUCCUCUUCCACGUGCGCGUGAAAGAGAGAAGUGAACCAGAGAAACACACGCUGUGGUAUAUUACCUGGUA [U9C U52C]	0.6
GUCCUCUUCCACGUGCGCGUGAAAGAGAGAAGUGAACCAGAGAAACACACGGUGUGGUAUAUUACCUGGUA [U9C U52G]	0.74
GUCCUCUUGCACGUGCGCGUGAGAGAGAGAAGUGAACCAGAGAAACACACGUUGUGGUAUAUUACCUGGUA [U9G A23G]	0.72
GUCCUCUUCCACGUGCGCGUGAAAGAGAGAAGUUAACCAGAGAAACACACGUUGUGGUAUAUUACCUGGUA [U9C G34U]	1.09
GUCCUCUUCCACGAGCGCGUGAAAGAGAGAAGUGAACCAGAGAAACACACGUUGUGGUAUAUUACCUGGUA [U9C U14A]	0.781
GUCCUCUUCCACGUGCGCGUGAAAGAGAGAACUGAACCAGAGAAACACACGUUGUGGUAUAUUACCUGGUA [U9C G32C]	0.0478
GUCCUCUUCCACGUGCGCGUGAAAGAGAGAAAUGAACCAGAGAAACACACGUUGUGGUAUAUUACCUGGUA [U9C G32A]	0.125
GUCCUCUUCCACGUGCGCGUGAAAGAGAGAAGUGAACCAGAGAAACACACGUUGUGGUAUAUUACCUGGAA [U9C U70A]	0.669

Variant	self-cleavage
GUCCUCUUGCACGUGCGCGUGAAAGAGAGCAGUGAACCAGAGAAACACACGUUGUGGUAUAUUACCUGGUA [U9G A30C]	0.206
GUCCUCUUGCACGUGCGCGUGAAAGAGAGUAGUGAACCAGAGAAACACACGUUGUGGUAUAUUACCUGGUA [U9G A30U]	0.0546
GUCCUCUUCCACGUGCGCGUGAAAGAGAGAAGUGAACCAGAGAAACACACGUUGAGGUAUAUUACCUGGUA [U9C U55A]	0.299
GUCCUCUUCCACGUGCGCGUGAAAGAGAGAAGUGAACCAGAGAAACACACGUUGCGGUAUAUUACCUGGUA [U9C U55C]	0.134
GUCCUCUUCCACGUGCGCGUGAAAGAGAGAAGUGAACCAGAGAAACACACGUUGUGGUAAAUUACCUGGUA [U9C U60A]	0.769
GUCCUCUUCCACGUGCGCGUGAAAGAGAGAAGUGAACCAGAGAAACACACGUUGUGGUAUAUUACCUCGUA [U9C G68C]	0.108
GUCCUCUUCCACGUGCGCGAGAAAGAGAGAAGUGAACCAGAGAAACACACGUUGUGGUAUAUUACCUGGUA [U9C U20A]	0.692
GUCCUCUUCCACGUGCGCGCGAAAGAGAGAAGUGAACCAGAGAAACACACGUUGUGGUAUAUUACCUGGUA [U9C U20C]	0.885
GUCCUCUUCCACGUGCGCUUGAAAGAGAGAAGUGAACCAGAGAAACACACGUUGUGGUAUAUUACCUGGUA [U9C G19U]	0.617
GUCCUCUUCCACGUGCGCGUGAAAGAGAGAAGUGAACCAGAGAAACACACGUUGUGGUAUAUCACCUGGUA [U9C U63C]	0.133
GUCCUCUUCCACGUGCGCGUGAAAGAGAGAAGUGAACCAGAGAAACACACGUUGUGUUAUAUUACCUGGUA [U9C G57U]	0.185
GUCCUCUUCCACGUGCGCGUGAAAGAGAGAAGUGAACCAAAGAAACACACGUUGUGGUAUAUUACCUGGUA [U9C G40A]	0.313
GUCCUCUUCCACGUGCGCGUGAAAGAGAGAAGUGAACCAGAGAAACACACGUUUUGGUAUAUUACCUGGUA [U9C G54U]	0.539
GUCCUCUUCCACGUGCGCGUGAAAGAGAGAAGUGAACCAGAGAAACACACGUUGUGGUAUACUACCUGGUA [U9C U62C]	0.143
GUCCUCUUCCACGUGCGCGUGAAAGAGAGAAGAGAACCAGAGAAACACACGUUGUGGUAUAUUACCUGGUA [U9C U33A]	0.0961
GUCCUCUUCCACGUGCGCGUGAAAGAGAGAAGGGAACCAGAGAAACACACGUUGUGGUAUAUUACCUGGUA [U9C U33G]	0.154
GUCCUCUUCCACGUGCGCGUGAAAGAGAUAAGUGAACCAGAGAAACACACGUUGUGGUAUAUUACCUGGUA [U9C G29U]	0.179
GUCCUCUUCCACGUGCGCGUGAAAGAGACAAGUGAACCAGAGAAACACACGUUGUGGUAUAUUACCUGGUA [U9C G29C]	0.1
GUCCUCUUCCACGUGCGCGUGAAAGAGAGAAGUGAACCAGAGAAACACACGUUGUGGGAUAUUACCUGGUA [U9C U58G]	0.729
